From PMC2396426 (Nucleic Acids Research, 2008)

Biological target: T1, yeast general transcription factor TFIIB (yeast, UniProt P29055 1-345)
T1 sequence (looked up): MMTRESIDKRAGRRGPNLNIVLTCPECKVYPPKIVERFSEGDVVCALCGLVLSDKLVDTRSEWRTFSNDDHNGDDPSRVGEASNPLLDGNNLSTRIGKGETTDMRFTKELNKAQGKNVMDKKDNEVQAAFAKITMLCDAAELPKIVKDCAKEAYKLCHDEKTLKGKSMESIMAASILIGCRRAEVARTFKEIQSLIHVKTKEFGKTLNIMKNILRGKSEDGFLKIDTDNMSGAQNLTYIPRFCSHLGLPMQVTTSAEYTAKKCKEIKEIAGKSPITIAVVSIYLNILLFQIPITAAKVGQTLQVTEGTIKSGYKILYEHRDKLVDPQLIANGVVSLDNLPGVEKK
Test: native gel or EMSA

B1: yeast TATA-binding protein (TBP) (natural protein, UniProt P13393 1-240, looked up)
chain: MADEERLKEFKEANKIVFDPNTRQVWENQNRDGTKPATTFQSEEDIKRAAPESEKDTSATSGIVPTLQNIVATVTLGCRLDLKTVALHARNAEYNPKRFAAVIMRIREPKTTALIFASGKMVVTGAKSEDDSKLASRKYARIIQKIGFAAKFTDFKIQNIVGSCDVKFPIRLEGLAFSHGTFSSYEPELFPGLIYRMVKPKIVLLIFVSGKIVLTGAKQREEIYQAFEAIYPVLSEFRKM
B1: binds.
